Source: article PMC3992933 (Peptides, 2014)
No end group written: not given here.

Tests used:
[1] = target: human serum albumin (HSA) (Homo sapiens, UniProt P02768); assay: SPR spectroscopy, HBD binding to immobilized human serum albumin; conditions: in terms of absolute response and kinetic shape of binding
[2] = tested on: immobilized P. gingivalis hemagglutinin B (HagB); conditions: ref [2]; cited from earlier work
[3] = tested on: immobilized adhesins from the periodontal pathogen Porphyromonas gingivalis; conditions: ref [2], [5], [18]; cited from earlier work
[4] = target: Bla g2 from the German cockroach (Blattella germanica) (Blattella germanica); assay: SPR

HBD1: human β-defensin used as a control β-defensin; purchased from PeproTech, Inc. (DHYNCVSSGGQCLYSACPIFTKIQGTCYRGKAKCCK; ends and bridges not checked; cysteine pairing not given here)
binding to HSA compared with Bla g2 (in words) [1]: bound to immobilized HSA similar to Bla g2

histatin 5
binding to immobilized HagB (in words) [2]: bind specifically | binding to immobilized adhesins from P. gingivalis (in words) [3]: specifically bind

GIINTLQKYYCRVRGGRCAVLSCLPKEEQIGKCSTRGRKCCRRKK (ends and bridges not checked; cysteine pairing not given here) [Human β-defensin 3]
Kd [4]: 5.9 µM
